Experimental data taken from patent US20220010021A1 (Sanofi, published 2022).
Numbering of substitutions follows the chain as printed. Names and notes keep the numbering of the source.

B1: Ab0458 (antibody, IgG4, V domains shown)
VH: QVTLKESGPVLVKPTETLTLTCTVSGFSLTNARVGVSWIRQPPGKALEWLAHIFSNDEKSYSTSLKSRLTISKDTSKSQVVLTMTNMDPVDTATYYCARSVVTGGYYYEGMDVWGQGTTVTVSS
VL: SYVLTQPPSVSVAPGQTARITCGGSNIGSESVHWYQQKPGQAPVLVVYSASDRPSGIPERFSGSNSGNTATLTISRVEAGDEADYYCQVWEGESDHVVFGGGTKLTVLG
B2: Ab0459 (antibody, IgG4, V domains shown)
VH: B1 VH with T30S, N31Y
VL: B1 VL
B3: Ab0460 (antibody, IgG4, V domains shown)
VH: B1 VH with N31Y
VL: B1 VL
B4: Ab0461 (antibody, IgG4, V domains shown)
VH: B1 VH with T30S
VL: B1 VL with S49E, A50E
B5: Ab0462 (antibody, IgG4, V domains shown)
VH: B1 VH
VL: B1 VL with S49E, A50E
B6: Ab0463 (antibody, IgG4, V domains shown)
VH: B1 VH with T30S, N31Y
VL: B1 VL with S49E, A50E
B7: Ab0464 (antibody, IgG4, V domains shown)
VH: B1 VH with N31Y
VL: B1 VL with S49E, A50E
B8: 16H7 light chain variant D49A (antibody, IgG4, V domains shown)
VH: not shown
VL: B1 VL with S25N, S49A, A50D, E91D, E93N
B9: 16H7 light chain variant D50K (antibody, IgG4, V domains shown)
VH: not shown
VL: B1 VL with S25N, S49D, A50K, E91D, E93N
B10: 16H7 light chain variant D95S (antibody, IgG4, V domains shown)
VH: not shown
VL: B1 VL with S25N, S49D, A50D, E91D, E93N, D95S
B11: 16H7 light chain variant S94K (antibody, IgG4, V domains shown)
VH: not shown
VL: B1 VL with S25N, S49D, A50D, E91D, E93N, S94K
B12: 16H7 light chain variant V32P (antibody, IgG4, V domains shown)
VH: not shown
VL: B1 VL with S25N, V32P, S49D, A50D, E91D, E93N
B13: 16H7 light chain variant H33P (antibody, IgG4, V domains shown)
VH: not shown
VL: B1 VL with S25N, H33P, S49D, A50D, E91D, E93N
B14: 16H7 light chain variant D95P (antibody, IgG4, V domains shown)
VH: not shown
VL: B1 VL with S25N, S49D, A50D, E91D, E93N, D95P
B15: 16H7 light chain variant D95C (antibody, IgG4, V domains shown)
VH: not shown
VL: B1 VL with S25N, S49D, A50D, E91D, E93N, D95C
B16: 16H7 light chain variant D95G (antibody, IgG4, V domains shown)
VH: not shown
VL: B1 VL with S25N, S49D, A50D, E91D, E93N, D95G
B17: 16H7 light chain variant D95W (antibody, IgG4, V domains shown)
VH: not shown
VL: B1 VL with S25N, S49D, A50D, E91D, E93N, D95W
B18: 16H7 light chain variant H33W (antibody, IgG4, V domains shown)
VH: not shown
VL: B1 VL with S25N, H33W, S49D, A50D, E91D, E93N
B19: 16H7 light chain variant H33R (antibody, IgG4, V domains shown)
VH: not shown
VL: B1 VL with S25N, H33R, S49D, A50D, E91D, E93N
B20: 16H7 light chain variant D95R (antibody, IgG4, V domains shown)
VH: not shown
VL: B1 VL with S25N, S49D, A50D, E91D, E93N, D95R
B21: 16H7 light chain variant D95V (antibody, IgG4, V domains shown)
VH: not shown
VL: B1 VL with S25N, S49D, A50D, E91D, E93N, D95V
B22: 16H7 light chain variant D95E (antibody, IgG4, V domains shown)
VH: not shown
VL: B1 VL with S25N, S49D, A50D, E91D, E93N, D95E
B23: 16H7 light chain variant H33K (antibody, IgG4, V domains shown)
VH: not shown
VL: B1 VL with S25N, H33K, S49D, A50D, E91D, E93N
B24: 16H7 light chain variant D49H (antibody, IgG4, V domains shown)
VH: not shown
VL: B1 VL with S25N, S49H, A50D, E91D, E93N
B25: 16H7 light chain variant D95N (antibody, IgG4, V domains shown)
VH: not shown
VL: B1 VL with S25N, S49D, A50D, E91D, E93N, D95N
B26: 16H7 light chain variant D49N (antibody, IgG4, V domains shown)
VH: not shown
VL: B1 VL with S25N, S49N, A50D, E91D, E93N
B27: 16H7 light chain variant D95F (antibody, IgG4, V domains shown)
VH: not shown
VL: B1 VL with S25N, S49D, A50D, E91D, E93N, D95F
B28: 16H7 light chain variant D49Y (antibody, IgG4, V domains shown)
VH: not shown
VL: B1 VL with S25N, S49Y, A50D, E91D, E93N
B29: 16H7 light chain variant D49E (antibody, IgG4, V domains shown)
VH: not shown
VL: B1 VL with S25N, S49E, A50D, E91D, E93N
B30: 16H7 light chain variant D49T (antibody, IgG4, V domains shown)
VH: not shown
VL: B1 VL with S25N, S49T, A50D, E91D, E93N
B31: 16H7 light chain variant D49C (antibody, IgG4, V domains shown)
VH: not shown
VL: B1 VL with S25N, S49C, A50D, E91D, E93N
B32: 16H7 light chain variant D49F (antibody, IgG4, V domains shown)
VH: not shown
VL: B1 VL with S25N, S49F, A50D, E91D, E93N
B33: 16H7 light chain variant D49V (antibody, IgG4, V domains shown)
VH: not shown
VL: B1 VL with S25N, S49V, A50D, E91D, E93N
B34: 16H7 light chain variant D49K (antibody, IgG4, V domains shown)
VH: not shown
VL: B1 VL with S25N, S49K, A50D, E91D, E93N
B35: 16H7 light chain variant D49L (antibody, IgG4, V domains shown)
VH: not shown
VL: B1 VL with S25N, S49L, A50D, E91D, E93N
B36: 16H7 light chain variant D49M (antibody, IgG4, V domains shown)
VH: not shown
VL: B1 VL with S25N, S49M, A50D, E91D, E93N
B37: 16H7 light chain variant D49R (antibody, IgG4, V domains shown)
VH: not shown
VL: B1 VL with S25N, S49R, A50D, E91D, E93N
B38: 16H7 light chain variant H96P (antibody, IgG4, V domains shown)
VH: not shown
VL: B1 VL with S25N, S49D, A50D, E91D, E93N, H96P
B39: 16H7 light chain variant D49P (antibody, IgG4, V domains shown)
VH: not shown
VL: B1 VL with S25N, S49P, A50D, E91D, E93N
B40: 16H7 light chain variant D49I (antibody, IgG4, V domains shown)
VH: not shown
VL: B1 VL with S25N, S49I, A50D, E91D, E93N
B41: 16H7 light chain variant V97A (antibody, IgG4, V domains shown)
VH: not shown
VL: B1 VL with S25N, S49D, A50D, E91D, E93N, V97A
B42: 16H7 light chain variant V97R (antibody, IgG4, V domains shown)
VH: not shown
VL: B1 VL with S25N, S49D, A50D, E91D, E93N, V97R
B43: 16H7 light chain variant D50P (antibody, IgG4, V domains shown)
VH: not shown
VL: B1 VL with S25N, S49D, A50P, E91D, E93N
B44: 16H7 light chain variant V97K (antibody, IgG4, V domains shown)
VH: not shown
VL: B1 VL with S25N, S49D, A50D, E91D, E93N, V97K
B45: 16H7 light chain variant V97H (antibody, IgG4, V domains shown)
VH: not shown
VL: B1 VL with S25N, S49D, A50D, E91D, E93N, V97H
B46: 16H7 light chain variant V97S (antibody, IgG4, V domains shown)
VH: not shown
VL: B1 VL with S25N, S49D, A50D, E91D, E93N, V97S
B47: 16H7 light chain variant V97E (antibody, IgG4, V domains shown)
VH: not shown
VL: B1 VL with S25N, S49D, A50D, E91D, E93N, V97E

How the values were obtained:
[1] = biological target: human FGFR1c + KLB receptor complex on HEK293 iLite FGF21 reporter cells (human, UniProt P11362 22-822; Q86Z14 1-1044); assay: cell-based or functional assay
[2] = biological target: cell surface receptor composed of FGFR1c and co-receptor beta-Klotho (KLB) (human, UniProt P11362 22-822; Q86Z14 1-1044); assay: cell-based or functional assay; as to Mean E max, Luciferase reporter gene assay: reference of the scale not given here
Sequence of cell surface receptor composed of FGFR1c and co-receptor beta-Klotho (KLB) (P11362 22-822, chain 1 of 2): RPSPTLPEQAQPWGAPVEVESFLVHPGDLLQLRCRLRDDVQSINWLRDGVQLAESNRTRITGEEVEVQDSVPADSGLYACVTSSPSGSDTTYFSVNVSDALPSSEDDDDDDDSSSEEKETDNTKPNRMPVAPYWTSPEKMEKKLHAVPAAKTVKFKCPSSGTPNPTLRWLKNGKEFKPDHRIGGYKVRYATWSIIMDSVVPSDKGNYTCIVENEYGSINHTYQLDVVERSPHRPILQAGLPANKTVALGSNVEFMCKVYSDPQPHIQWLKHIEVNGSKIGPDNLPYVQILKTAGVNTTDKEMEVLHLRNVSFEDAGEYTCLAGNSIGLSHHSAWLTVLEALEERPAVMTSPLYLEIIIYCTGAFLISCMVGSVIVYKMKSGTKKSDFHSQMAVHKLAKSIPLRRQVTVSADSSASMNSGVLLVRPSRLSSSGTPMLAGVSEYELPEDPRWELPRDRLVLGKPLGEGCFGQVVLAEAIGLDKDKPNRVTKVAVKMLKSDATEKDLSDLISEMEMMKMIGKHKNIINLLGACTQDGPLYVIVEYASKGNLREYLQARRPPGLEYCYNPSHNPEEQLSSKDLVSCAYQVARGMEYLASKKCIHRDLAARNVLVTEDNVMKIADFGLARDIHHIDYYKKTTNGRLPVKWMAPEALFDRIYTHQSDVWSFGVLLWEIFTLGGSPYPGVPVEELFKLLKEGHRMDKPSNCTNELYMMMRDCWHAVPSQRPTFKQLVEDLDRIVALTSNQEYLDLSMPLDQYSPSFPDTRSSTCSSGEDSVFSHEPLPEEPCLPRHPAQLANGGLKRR
Sequence of cell surface receptor composed of FGFR1c and co-receptor beta-Klotho (KLB) (Q86Z14 whole entry, chain 2 of 2): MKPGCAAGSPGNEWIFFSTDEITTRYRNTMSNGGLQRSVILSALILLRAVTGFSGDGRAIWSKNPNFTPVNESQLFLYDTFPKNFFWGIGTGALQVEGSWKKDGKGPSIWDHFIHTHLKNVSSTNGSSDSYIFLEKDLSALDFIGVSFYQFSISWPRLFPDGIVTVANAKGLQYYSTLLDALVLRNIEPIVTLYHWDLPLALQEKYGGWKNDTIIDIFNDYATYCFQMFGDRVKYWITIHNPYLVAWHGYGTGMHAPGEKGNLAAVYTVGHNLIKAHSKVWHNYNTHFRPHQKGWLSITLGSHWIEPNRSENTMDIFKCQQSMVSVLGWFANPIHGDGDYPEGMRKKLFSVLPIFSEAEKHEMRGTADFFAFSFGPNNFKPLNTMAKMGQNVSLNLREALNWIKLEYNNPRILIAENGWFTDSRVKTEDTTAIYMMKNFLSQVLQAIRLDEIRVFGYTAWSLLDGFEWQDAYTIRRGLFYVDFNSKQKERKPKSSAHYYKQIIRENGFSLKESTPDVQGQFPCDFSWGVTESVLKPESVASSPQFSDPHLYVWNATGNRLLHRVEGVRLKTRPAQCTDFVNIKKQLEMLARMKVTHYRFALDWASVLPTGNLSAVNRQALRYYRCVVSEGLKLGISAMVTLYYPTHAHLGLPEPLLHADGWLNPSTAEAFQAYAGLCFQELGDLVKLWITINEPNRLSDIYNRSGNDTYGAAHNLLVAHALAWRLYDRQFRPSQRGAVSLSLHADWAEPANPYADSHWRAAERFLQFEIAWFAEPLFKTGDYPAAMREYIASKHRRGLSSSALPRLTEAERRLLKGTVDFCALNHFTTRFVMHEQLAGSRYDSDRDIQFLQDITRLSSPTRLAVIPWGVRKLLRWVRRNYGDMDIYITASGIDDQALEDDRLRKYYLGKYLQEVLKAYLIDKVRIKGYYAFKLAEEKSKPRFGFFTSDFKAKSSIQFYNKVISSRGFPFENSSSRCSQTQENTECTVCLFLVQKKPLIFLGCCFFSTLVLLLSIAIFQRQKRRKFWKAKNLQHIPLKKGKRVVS

Sequence of human FGFR1c + KLB receptor complex on HEK293 iLite FGF21 reporter cells (P11362 22-822, chain 1 of 2): as the sequence (P11362 22-822, chain 1 of 2) above
Sequence of human FGFR1c + KLB receptor complex on HEK293 iLite FGF21 reporter cells (Q86Z14 whole entry, chain 2 of 2): as the sequence (Q86Z14 whole entry, chain 2 of 2) above

| Binder | EC50 [1] | Emax [1] | Mean E max, Luciferase reporter gene assay [2] | Mean EC50, Luciferase reporter gene assay [2] |
| --- | --- | --- | --- | --- |
| B1 | 0.02 nM | 1430% | – | – |
| B2 | 0.04 nM | 1110% | – | – |
| B3 | 0.05 nM | 1050% | – | – |
| B4 | 0.02 nM | 1390% | – | – |
| B5 | 0.03 nM | 1340% | – | – |
| B6 | 0.05 nM | 951% | – | – |
| B7 | 0.02 nM | 910% | – | – |
| B8 | – | – | 100% | 0.106 nM |
| B9 | – | – | 109% | – |
| B10 | – | – | 37% | – |
| B11 | – | – | 104% | 0.185 nM |
| B12 | – | – | 85% | 0.164 nM |
| B13 | – | – | 90% | 0.253 nM |
| B14 | – | – | 4% | – |
| B15 | – | – | 4% | – |
| B16 | – | – | 47% | 6.56 nM |
| B17 | – | – | 5% | – |
| B18 | – | – | 80% | 0.666 nM |
| B19 | – | – | 68% | 2.19 nM |
| B20 | – | – | 4% | – |
| B21 | – | – | 3% | – |
| B22 | – | – | 44% | 8.04 nM |
| B23 | – | – | 96% | 0.174 nM |
| B24 | – | – | 90% | 0.183 nM |

| Binder | EC50 [1] | Emax [1] | Mean E max, Luciferase reporter gene assay [2] | Mean EC50, Luciferase reporter gene assay [2] |
| --- | --- | --- | --- | --- |
| B25 | – | – | 78% | 1.03 nM |
| B26 | – | – | 108% | 0.19 nM |
| B27 | – | – | -1% | – |
| B28 | – | – | 99% | 0.151 nM |
| B29 | – | – | 87% | 0.193 nM |
| B30 | – | – | 89% | 0.107 nM |
| B31 | – | – | 85% | 0.789 nM |
| B32 | – | – | 94% | 0.256 nM |
| B33 | – | – | 97% | 0.206 nM |
| B34 | – | – | 83% | 1.34 nM |
| B35 | – | – | 92% | 0.529 nM |
| B36 | – | – | 85% | 0.224 nM |
| B37 | – | – | 72% | 1.86 nM |
| B38 | – | – | 50% | – |
| B39 | – | – | 96% | 0.195 nM |
| B40 | – | – | 83% | 0.149 nM |
| B41 | – | – | 68% | 2.09 nM |
| B42 | – | – | -1% | – |
| B43 | – | – | 77% | 0.124 nM |
| B44 | – | – | 96% | 0.444 nM |
| B45 | – | – | 71% | 1.47 nM |
| B46 | – | – | 84% | 0.308 nM |
| B47 | – | – | 92% | 0.15 nM |
